The values that follow come from US20230093708A1, “PROTEIN NANOPARTICLE DESIGN AND APPLICATION” (Duke University, priority 2020, published 2023).

Non-standard residues stand in square brackets, D forms with d. Phe(4-N3) = [N-]=[N+]=Nc1ccc(C[C@H](N)C(=O)O)cc1

A short description of data set [1]: DLS of native and crosslinked pAzF diblock constructs in PBS and GuHCl. The class given is physicochemical. The text has this:
We wanted to thoroughly investigate the effects of pAzF-introduction as well as nanoparticle crosslinking on nanoparticle self-assembly. For this, we started by characterizing solely our five different ELP/RLP diblock architectures without any C-terminal functionalization. After expression and purification of the diblock constructs using ITC, the pAzF-containing constructs were crosslinked in solution by exposure to UV irradiation and characterized using dynamic light scattering (DLS). […] Generally, both processes seem to have increased the measured radii with this effect being more pronounced for the worm-forming constructs.
Apart from changes in nanoparticle morphology we were particularly interested in the effect pAzF-crosslinking had on their stability. […] GuHCl is a well-known denaturing agent that disrupts any inter- and intramolecular electrostatic forces and completely breaks down the quaternary, tertiary and secondary structure of most known proteins. Covalent bonds—such as the ones formed by pAzF-crosslinking—however remain unaffected by GuHCl, thus, the addition of this denaturing agent was expected to give us insights on the stability of our crosslinked nanoparticles. […] All native samples on the other hand resorted to complete unimerization upon exposure to GuHCl. As the Rh values for the crosslinked particles in GuHCl were generally larger than in PBS, the DLS data furthermore indicates a swelling behavior in the presence of the denaturing agent. This can most probably be attributed to the RLP core which is assumed to be completely collapsed in PBS but will however try to reach an elongated, random-coil morphology in the presence of GuHCl.
The first step of the characterization process was to produce crosslinked particles for the functionalized diblock constructs and to analyze whether the attachment of the ligands had caused any significant changes in particle size. […] Whatever the reason was, it had no effect on the crosslinking process as the particles still remained stable after GuHCl exposure.
Dynamic light scattering of cross-linkable protein nanoparticles was performed. […] However, these crosslinked particles remain assembled, actually growing slightly in size due to chain swelling of the core and corona in this new buffer. These novel scaffolds support various targeting domains and assemble into nearly identically sized nanoparticles between […] in hydrodynamic radius.

The nature of data set [2]: Critical assembly concentration (CAC) by DLS dilution series. The class given is physicochemical. The procedure:
Lastly, we also wanted to determine the critical assembly concentration (CAC) of the individual constructs. The Rh values were measured with DLS over a dilution series from the mid-micromolar down to the low nanomolar range. […] Curiously, the mere introduction of crosslinking sites seems to dramatically decrease the CAC. Generally, the worm-forming constructs had lower CACs than their spherical analogues and so do pAzF-containing constructs in comparison to analogous pAzF-free polypeptides.

B1: UAA4-80: pAzF-containing worm-forming diblock construct (protein)
chain: QYPSDGRGQYPSDGRGQYPSDGRGQYPSDGRG[Phe(4-N3)]QYPSDGRGQYPSDGRGQYPSDGRGQYPSDGRG[Phe(4-N3)]QYPSDGRGQYPSDGRGQYPSDGRGQYPSDGRG[Phe(4-N3)]QYPSDGRGQYPSDGRGQYPSDGRGQYPSDGRG[Phe(4-N3)]QYPSDGRGQYPSDGRGQYPSDGRGQYPSDGRG[Phe(4-N3)]
As for B1, the “RH (nm)” value is recorded as 138.1 ± 12.5 nm in data set [1] (15 μm in 7.2M GuHCl, crosslinked); 7.4 ± 1.9 nm in data set [1] (15 μm in 7.2M GuHCl, native (not crosslinked)); 86.2 ± 4.5 nm in data set [1] (15 μm in PBS, crosslinked); 55.7 ± 2.3 nm in data set [1] (15 μm in PBS, native (not crosslinked)). The CAC in data set [2] was in the range of 30 to 50 nM.
